These results are taken from patent US20260193375A1 (NORMUNITY, published 2026).

One experiment concerns the target T1, hLY6K-his (human, UniProt Q17RY6 18-138, limits assumed).
T1 construct: not shown: his tag
T1 sequence: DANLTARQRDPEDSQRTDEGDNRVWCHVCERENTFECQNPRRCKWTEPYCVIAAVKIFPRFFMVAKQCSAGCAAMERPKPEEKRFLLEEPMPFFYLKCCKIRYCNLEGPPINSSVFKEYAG
Put plainly: SPR (Carterra LSA), mAb captured on anti-human IgG-Fc, antigen as analyte.

A further experiment concerns the target T2, hLY6K-mFc (human, UniProt Q17RY6 18-138).
T2 construct: not shown: mFc
T2 sequence: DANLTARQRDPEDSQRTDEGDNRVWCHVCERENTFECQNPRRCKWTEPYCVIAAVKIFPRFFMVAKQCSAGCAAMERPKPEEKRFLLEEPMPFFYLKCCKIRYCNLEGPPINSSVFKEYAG
The experiment is described as above.

In the next experiment the target is cyLY6K-mFc (cynomolgus monkey). Described as above.
The target in experiment [1] is T3, human LY6E (R&D Systems) (human, UniProt Q16553 21-101, limits assumed).
T3 construct: also called hLY6E
T3 sequence (looked up): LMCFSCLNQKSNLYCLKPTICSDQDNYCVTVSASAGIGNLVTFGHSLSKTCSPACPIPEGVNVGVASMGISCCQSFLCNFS
As to the kind of experiment: ELISA, antigen coated on the plate, antibody as human IgG1, anti-human F(ab)2 HRPO.

For a further experiment, the target named is T4, Ly6D.
T4 chain: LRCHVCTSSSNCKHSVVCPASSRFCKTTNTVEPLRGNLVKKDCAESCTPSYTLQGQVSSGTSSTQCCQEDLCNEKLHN
The description is as above.

The target in another experiment is T5, Ly6H.
T5 chain: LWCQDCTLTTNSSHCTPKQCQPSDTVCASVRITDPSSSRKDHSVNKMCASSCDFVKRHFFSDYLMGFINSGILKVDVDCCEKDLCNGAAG
Described as above.

Experiment [2] addresses T6, recombinant human LY6K (Wuxi) (human, UniProt Q17RY6 18-138).
T6 construct: Limits of the construct not clearly stated; also called Human LY6K (Wuxi LY^KGLY138(1-38TR)_8His)
T6 sequence: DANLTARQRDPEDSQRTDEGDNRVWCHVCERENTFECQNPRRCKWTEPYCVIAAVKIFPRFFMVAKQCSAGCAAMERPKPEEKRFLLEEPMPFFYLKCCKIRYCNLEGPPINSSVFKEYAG
As to the kind of experiment: capture ELISA (MSD): antibody coated as capture at 2 µg/mL, recombinant human LY6K titrated, sulfo-tagged polyclonal anti-hLY6K (AF6648) for detection; EC50 is the LY6K concentration.

A further experiment has as its target T7, rat LY6K (R&D Systems) (rat).
T7 construct: also called rLY6K
As to the kind of experiment: ELISA, coated antigen, IgG1 at 10 ug/ml.

Experiment [3] deals with T8, cynomolgus monkey LY6K (R&D Systems) (cynomolgus monkey).
T8 construct: also called cyLY6K
Put plainly: ELISA, coated antigen, IgG1 at 10 ug/ml.

Experiment [4] addresses T3, human LY6E (R&D Systems). As to the kind of experiment: ELISA, coated antigen, IgG1 at 10 ug/ml.
The target of another experiment is T9, Human LY6K (R&D Systems) (human, UniProt Q17RY6 18-138, limits assumed).
T9 construct: Bought from R&D Systems, coated on ELISA plates; also called hLY6K
T9 sequence: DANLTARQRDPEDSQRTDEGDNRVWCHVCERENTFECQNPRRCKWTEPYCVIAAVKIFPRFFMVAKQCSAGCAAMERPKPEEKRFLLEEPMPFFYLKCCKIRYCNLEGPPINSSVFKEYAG
As to the kind of experiment: ELISA, coated antigen, IgG1 at 10 ug/ml.

For experiment [5], the target named is T10, cell-surface anchored LY6K (human, UniProt Q17RY6 18-138).
T10 construct: the cell is named under assay; also called LY6K on target cells
T10 sequence: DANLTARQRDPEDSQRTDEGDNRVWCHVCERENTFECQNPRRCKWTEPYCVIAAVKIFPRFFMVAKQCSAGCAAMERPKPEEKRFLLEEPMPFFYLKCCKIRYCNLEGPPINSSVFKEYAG
Put plainly: flow cytometry on target cells, MFI fitted in Prism; flow cytometry, live target cells, 4 degrees C.

Experiment [6] concerns the target T6, recombinant human LY6K (Wuxi). Put plainly: ELISA, LY6K coated at 2 ug/mL, HRP-labelled mAb titrated.
Experiment [7] addresses T10, cell-surface anchored LY6K. Put plainly: IHC, paraffin sections of 293 cells overexpressing LY6K.

B1: anti-LY6K antibody 3520 (antibody, V domains shown)
VH: QVQLVQSGSELKKPGASVKVSCKASGYTFTLYAMNWVRQAPGQGLEWMGWINTNTGNPTYAQGFTGRFVFSLDTSVSTAYLQISSLKAEDTAVYYCARTNWNSWGQGTMVTVSS
VL: DIQMTQSPSSLSASVGDRVTITCQASQDISNYLHWFQQKPGKAPKLLIYDASNLETGVPSRFSGSGSGTDFTFTIFSLQPEDIATYYCQHYDNLPLTFGGGTKVEIK
For the molecule B1, the figures for the equilibrium dissociation constant (Kd) with hLY6K-his, with hLY6K-mFc and in the experiment with cyLY6K-mFc were 31.9 nM, 0.373 nM and 117 nM, respectively. Besides, the binding result in the experiment with human LY6E (R&D Systems) [1], with Ly6D and in the experiment with Ly6H was “no binding (tested: 10 µg/ml)” each time. In addition, the EC50 was found to be 0.536 µg/mL in experiment [2], 3.61 nM in experiment [5] and 2.34 nM in experiment [6]. In addition, the “% of maximum of commercial anti-LY6K mAb on human LY6K” value (shortened to “% of maximum … on human LY6K”) with rat LY6K (R&D Systems) turned out to be 0.7%; in [3], 13.6%; with human LY6E (R&D Systems) [4], 2.8%; with Human LY6K (R&D Systems) it was 61.2%.

B2: anti-LY6K antibody 3075 (antibody, V domains shown)
VH: QVQLVQSGSELKRPGASVKVSCKASGYTFIRYAMNWVRQAPGQGLEWMGWINTNTGNPTYAQGFTGRFVLSVDTSVSTAYLQISSLKVEDTAVYYCGRPGISSFEYWGQGTLVTVSS
VL: DIQMTQSPSSLSASVGDRVAITCRATQDISNYLDWYQQKPGKAPKLLIYDASNLETGVPSRFSGSGSGTDFTFTINSLQPEDIATYYCQQYDNLPLTFGGGTKVEIK
On to B2, for which the “% of maximum … on human LY6K” value was 0.7% with rat LY6K (R&D Systems), 16.7% in experiment [3], 1.6% in the experiment with human LY6E (R&D Systems) [4] and 58.3% in the experiment with Human LY6K (R&D Systems). Moreover, the EC50 in experiment [5] was 0.805 nM; in experiment [6], 1.56 nM.

B3: anti-LY6K antibody 3522 (antibody, V domains shown)
VH: QVQLQQSGPGLVKPSQTLSLTCAISGDSVSSNSAAWNWIRQSPSRGLEWLGRTYYRSKWYNDYAVSVKSRITINPDTSKNQFSLQLNSVTPEDTAVYYCARECSGSYYRFDPWGQGTLVTVSS
VL: DIVMTQTPLSSPVTLGQPASISCRSSQSLVHSNGNTYLSWLQQRPGQPPRLLIYKISHRFSGVPDRFSGSGAGTDFTLKIRRVEAEDVGVYYCMQATQFPYTFGQGTKLEIK
Turning to B3, the figures for the binding result (with hLY6K-his; with hLY6K-mFc; in [7]) were “no binding (tested: up to 1.266-6 M as printed)”, “no binding (tested: up to 1.266-6 M as printed)” and “no binding (tested: 5 ug/ml)”, respectively. Moreover, the “% of maximum … on human LY6K” value with rat LY6K (R&D Systems) came out at 0.7%; in experiment [3], 2.6%; with human LY6E (R&D Systems) [4] it was 4.3%; with Human LY6K (R&D Systems), 2.1%.

B4: anti-LY6K antibody 3503 (antibody, V domains shown)
VH: EVQLVESGGGLVKPGGSLRLSCAASGFIFSSYSMNWVRQAPGKGLEWVSSISSSSSYIYYADSEKGRFTISRDNAKNSLYLQMNSLRAEDTAVYYCARQSTVVTSDYYYYYMDVWGKGTTVTVSS
VL: DIQMTQSPSSLSASVGDRVTITCRASQSISNYLNWYQQKPGKAPNLLIYAASSLQSGVPSRFSGSGSGTDFTLTISSLQPEDFATYYCQQSYSPPITFGQGTRLEIK
Take B4: the Kd with hLY6K-his was 3.49 nM; in the experiment with hLY6K-mFc, 0.0553 nM; with cyLY6K-mFc, 0.197 nM. Moreover, the binding result with human LY6E (R&D Systems) [1], with Ly6D and with Ly6H was “no binding (tested: 10 µg/ml)” each time. Further, the EC50 in experiment [2] is 0.064 µg/mL; in experiment [5] it was 0.576 nM; in experiment [6] it was 2.67 nM. Further, the “% of maximum … on human LY6K” value turned out to be 0.7% with rat LY6K (R&D Systems), 76.4% in experiment [3], 2.9% in the experiment with human LY6E (R&D Systems) [4] and 66.6% in the experiment with Human LY6K (R&D Systems).

B5: anti-LY6K antibody 3746 (antibody, V domains shown)
VH: EVQLVESGGGLVKPGGSLRLSCAASGFIFSSYSMNWVRQAPGKGLEWVSSISSSSSYIYYADSEKGRFTISRDNAKNSLYLQMNSLRAEDTAVYYCARQSTVVTSDYYYYYMDVWGKGTTVTVSS
VL: DIQMTQSPSSLSASVGDRVTITCRASQSISNYLNWYQQKPGKAPNLLIYAASSLQSGVPSRFSGSGSGTDFTLTISSLQPEDFATYYCQQSYSPPITFGQGTRLEIK
As for B5, the Kd is 2.5 nM with hLY6K-his, 0.0362 nM in the experiment with hLY6K-mFc and 0.216 nM with cyLY6K-mFc. Further, the “% of maximum … on human LY6K” value was 3.1% with rat LY6K (R&D Systems), 78.7% in experiment [3], 1.2% with human LY6E (R&D Systems) [4] and 76.9% with Human LY6K (R&D Systems). The values for the EC50 in experiment [5] and in [6] were 3.21 nM and 3.04 nM, respectively.

B6: anti-LY6K antibody 3507 (antibody, V domains shown)
VH: EVQLVESGGGLVKPGGSLRLSCAASGFTFSSYSMNWVRQAPGKGLEWVSSISSSSDYIYYADSVKGRFTISRDDAKNSLYLQMNSLRAEDTAVYYCARGLEPNYYYYMDVWGKGTTVTVSS
VL: EIVMTQSPGTLSVSPGERATLSCRASQSVSSSYLAWYQQKPGQAPRLLIYGASTRATGIPARFSGSGSGTEFTLTISSLQSEDFAVYYCQQYNNWPLTFGGGTKVEIK
For B6, the binding result in [7] is on record as “no binding (tested: 5 ug/ml)”. Also, the “% of maximum … on human LY6K” value is -1.2% in the experiment with rat LY6K (R&D Systems), 2.6% in [3], 1.7% in the experiment with human LY6E (R&D Systems) [4] and 2.6% in the experiment with Human LY6K (R&D Systems).

B7: anti-LY6K antibody 3724 (antibody, V domains shown)
VH: QLQLQESGPGLVKPSETLSLTCTVSGGSINSKSYYWDWIRQPPGKGLEWIGNIYYSGSTYYNPSLKSRVTISVDTSKNQFSLKLSSVTATDTAVYYCARHRGVTVTTYWYFDLWGRGTLVTVSS
VL: EIVLTQSPDFQSVTPKEKVTITCRASQSIGNSLHWYQQKSDQSPKLLIKYVSQSFSGVPSRFSGSGSGTDFTLTINSLEAEDAATYYCHQSSDFPHTFGQGTKLEIK
As for B7, in experiment [7], the binding result is given as “no binding (tested: 5 ug/ml)”. Further, the “% of maximum … on human LY6K” value in the experiment with rat LY6K (R&D Systems) was 3.3%; in experiment [3], 3.2%; with human LY6E (R&D Systems) [4], 3.9%; in the experiment with Human LY6K (R&D Systems), 6.2%.

B8: anti-LY6K antibody 3704 (antibody, V domains shown)
VH: EVQLVESGGGLVQPGRSLRLSCAASGFTFDDYAMHWVRQAPGKGLEWVSGISWKIITIGYADSVKGRFTISRDNVKNSLYLQMNSLRAEDTALYYCAKDSRTGLDYWGQGTLVTVSS
VL: DIQMTQSPSSLSASVGDRVTITCRASQTISSYLNWYQQKPGKAPKLLIYAASSLQSGVPSRFSGSGSGTDFTLTISSLQPEDFATYYCQQTYTAPLTFGPGTKVDIK
B8: in experiment [7], the binding result is reported as “no binding (tested: 5 ug/ml)”. For the same molecule, the “% of maximum … on human LY6K” value came to 0.6% with rat LY6K (R&D Systems), 2% in [3], 3.2% with human LY6E (R&D Systems) [4] and 2.2% in the experiment with Human LY6K (R&D Systems).
